Reference: patent publication US20080292615

Key:
Corneodesmosin, Q15517 = target: T1, Corneodesmosin, Q15517
T1 chain: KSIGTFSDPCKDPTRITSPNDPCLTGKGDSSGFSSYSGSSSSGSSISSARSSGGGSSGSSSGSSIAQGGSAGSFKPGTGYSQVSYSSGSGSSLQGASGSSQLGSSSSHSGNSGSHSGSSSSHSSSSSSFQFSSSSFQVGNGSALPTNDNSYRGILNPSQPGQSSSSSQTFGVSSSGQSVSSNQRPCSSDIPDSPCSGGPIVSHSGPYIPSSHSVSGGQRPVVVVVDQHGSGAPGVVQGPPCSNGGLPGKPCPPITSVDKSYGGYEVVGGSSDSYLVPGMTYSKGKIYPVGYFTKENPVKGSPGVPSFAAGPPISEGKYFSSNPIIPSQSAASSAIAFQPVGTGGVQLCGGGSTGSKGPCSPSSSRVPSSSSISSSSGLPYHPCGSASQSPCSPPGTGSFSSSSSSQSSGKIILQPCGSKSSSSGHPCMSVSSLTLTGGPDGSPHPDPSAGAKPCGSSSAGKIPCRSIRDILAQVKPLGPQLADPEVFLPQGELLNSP

Desmocollin 1, Q08554 = target: T2, Desmocollin 1, Q08554
T2 chain: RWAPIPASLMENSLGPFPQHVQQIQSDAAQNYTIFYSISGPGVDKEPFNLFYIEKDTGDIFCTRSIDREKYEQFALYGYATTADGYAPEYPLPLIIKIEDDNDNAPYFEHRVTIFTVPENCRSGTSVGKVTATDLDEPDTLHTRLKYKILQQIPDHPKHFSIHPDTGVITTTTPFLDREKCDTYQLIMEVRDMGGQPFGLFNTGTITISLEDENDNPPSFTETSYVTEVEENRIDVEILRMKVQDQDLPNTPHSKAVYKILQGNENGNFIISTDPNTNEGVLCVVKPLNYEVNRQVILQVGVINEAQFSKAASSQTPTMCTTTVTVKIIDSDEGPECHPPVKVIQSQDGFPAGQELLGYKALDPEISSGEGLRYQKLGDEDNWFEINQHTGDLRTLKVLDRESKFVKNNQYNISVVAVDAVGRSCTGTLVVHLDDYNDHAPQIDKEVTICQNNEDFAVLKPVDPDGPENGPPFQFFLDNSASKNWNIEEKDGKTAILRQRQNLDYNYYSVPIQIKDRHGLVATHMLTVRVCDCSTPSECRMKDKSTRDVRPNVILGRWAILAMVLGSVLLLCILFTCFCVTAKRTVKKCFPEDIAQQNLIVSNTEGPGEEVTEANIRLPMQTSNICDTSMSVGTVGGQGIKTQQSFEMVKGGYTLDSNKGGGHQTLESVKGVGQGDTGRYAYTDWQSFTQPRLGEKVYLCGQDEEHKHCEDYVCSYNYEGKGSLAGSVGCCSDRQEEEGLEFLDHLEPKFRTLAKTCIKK

Desmoglein, Q02413 = target: T3, Desmoglein, Q02413
T3 chain: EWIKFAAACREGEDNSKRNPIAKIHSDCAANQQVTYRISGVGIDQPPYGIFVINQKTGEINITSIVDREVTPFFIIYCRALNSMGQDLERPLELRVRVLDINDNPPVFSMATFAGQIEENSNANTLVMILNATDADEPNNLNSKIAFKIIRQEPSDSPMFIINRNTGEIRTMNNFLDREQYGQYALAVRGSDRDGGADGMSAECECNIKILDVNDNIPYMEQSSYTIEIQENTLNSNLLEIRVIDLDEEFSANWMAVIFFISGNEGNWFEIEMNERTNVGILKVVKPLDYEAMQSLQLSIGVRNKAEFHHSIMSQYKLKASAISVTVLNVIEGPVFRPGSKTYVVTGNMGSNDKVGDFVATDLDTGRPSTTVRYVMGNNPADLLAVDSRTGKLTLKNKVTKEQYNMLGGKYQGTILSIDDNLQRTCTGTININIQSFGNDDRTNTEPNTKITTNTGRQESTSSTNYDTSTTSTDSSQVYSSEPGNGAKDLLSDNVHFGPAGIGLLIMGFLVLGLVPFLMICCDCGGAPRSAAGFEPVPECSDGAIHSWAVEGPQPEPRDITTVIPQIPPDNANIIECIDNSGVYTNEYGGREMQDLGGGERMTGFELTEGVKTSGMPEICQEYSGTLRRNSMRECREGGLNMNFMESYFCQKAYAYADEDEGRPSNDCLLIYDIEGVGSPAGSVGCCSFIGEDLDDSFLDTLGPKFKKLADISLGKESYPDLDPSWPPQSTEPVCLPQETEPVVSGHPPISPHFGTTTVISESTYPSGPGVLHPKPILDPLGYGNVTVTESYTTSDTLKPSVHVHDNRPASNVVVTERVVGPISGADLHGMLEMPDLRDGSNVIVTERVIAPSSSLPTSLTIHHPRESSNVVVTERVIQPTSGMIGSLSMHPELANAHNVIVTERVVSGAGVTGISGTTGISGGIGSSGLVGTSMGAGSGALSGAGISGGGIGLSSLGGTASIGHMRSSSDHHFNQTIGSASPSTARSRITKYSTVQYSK

Plakoglobin, P14923 = target: T4, Plakoglobin, P14923
T4 chain: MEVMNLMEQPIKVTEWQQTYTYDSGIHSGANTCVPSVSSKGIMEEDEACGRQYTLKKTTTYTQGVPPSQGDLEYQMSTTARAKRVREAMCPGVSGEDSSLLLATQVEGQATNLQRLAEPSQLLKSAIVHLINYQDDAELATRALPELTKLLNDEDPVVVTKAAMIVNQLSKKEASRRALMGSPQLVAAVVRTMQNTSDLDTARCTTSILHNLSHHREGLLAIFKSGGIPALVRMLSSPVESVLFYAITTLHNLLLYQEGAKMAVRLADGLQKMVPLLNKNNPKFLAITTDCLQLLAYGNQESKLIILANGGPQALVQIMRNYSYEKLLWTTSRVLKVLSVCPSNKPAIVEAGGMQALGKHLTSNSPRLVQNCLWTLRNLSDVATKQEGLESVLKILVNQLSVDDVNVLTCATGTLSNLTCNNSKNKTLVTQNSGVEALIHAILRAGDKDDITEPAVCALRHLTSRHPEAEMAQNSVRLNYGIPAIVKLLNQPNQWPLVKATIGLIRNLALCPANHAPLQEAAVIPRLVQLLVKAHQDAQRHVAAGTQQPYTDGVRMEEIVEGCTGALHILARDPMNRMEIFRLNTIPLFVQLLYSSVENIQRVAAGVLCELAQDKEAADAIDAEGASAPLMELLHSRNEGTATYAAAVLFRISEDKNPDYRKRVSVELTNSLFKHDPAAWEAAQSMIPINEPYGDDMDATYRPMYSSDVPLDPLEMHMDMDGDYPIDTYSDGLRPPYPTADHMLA

Sequence of Desmoplakin, P15924 (P15924 whole entry): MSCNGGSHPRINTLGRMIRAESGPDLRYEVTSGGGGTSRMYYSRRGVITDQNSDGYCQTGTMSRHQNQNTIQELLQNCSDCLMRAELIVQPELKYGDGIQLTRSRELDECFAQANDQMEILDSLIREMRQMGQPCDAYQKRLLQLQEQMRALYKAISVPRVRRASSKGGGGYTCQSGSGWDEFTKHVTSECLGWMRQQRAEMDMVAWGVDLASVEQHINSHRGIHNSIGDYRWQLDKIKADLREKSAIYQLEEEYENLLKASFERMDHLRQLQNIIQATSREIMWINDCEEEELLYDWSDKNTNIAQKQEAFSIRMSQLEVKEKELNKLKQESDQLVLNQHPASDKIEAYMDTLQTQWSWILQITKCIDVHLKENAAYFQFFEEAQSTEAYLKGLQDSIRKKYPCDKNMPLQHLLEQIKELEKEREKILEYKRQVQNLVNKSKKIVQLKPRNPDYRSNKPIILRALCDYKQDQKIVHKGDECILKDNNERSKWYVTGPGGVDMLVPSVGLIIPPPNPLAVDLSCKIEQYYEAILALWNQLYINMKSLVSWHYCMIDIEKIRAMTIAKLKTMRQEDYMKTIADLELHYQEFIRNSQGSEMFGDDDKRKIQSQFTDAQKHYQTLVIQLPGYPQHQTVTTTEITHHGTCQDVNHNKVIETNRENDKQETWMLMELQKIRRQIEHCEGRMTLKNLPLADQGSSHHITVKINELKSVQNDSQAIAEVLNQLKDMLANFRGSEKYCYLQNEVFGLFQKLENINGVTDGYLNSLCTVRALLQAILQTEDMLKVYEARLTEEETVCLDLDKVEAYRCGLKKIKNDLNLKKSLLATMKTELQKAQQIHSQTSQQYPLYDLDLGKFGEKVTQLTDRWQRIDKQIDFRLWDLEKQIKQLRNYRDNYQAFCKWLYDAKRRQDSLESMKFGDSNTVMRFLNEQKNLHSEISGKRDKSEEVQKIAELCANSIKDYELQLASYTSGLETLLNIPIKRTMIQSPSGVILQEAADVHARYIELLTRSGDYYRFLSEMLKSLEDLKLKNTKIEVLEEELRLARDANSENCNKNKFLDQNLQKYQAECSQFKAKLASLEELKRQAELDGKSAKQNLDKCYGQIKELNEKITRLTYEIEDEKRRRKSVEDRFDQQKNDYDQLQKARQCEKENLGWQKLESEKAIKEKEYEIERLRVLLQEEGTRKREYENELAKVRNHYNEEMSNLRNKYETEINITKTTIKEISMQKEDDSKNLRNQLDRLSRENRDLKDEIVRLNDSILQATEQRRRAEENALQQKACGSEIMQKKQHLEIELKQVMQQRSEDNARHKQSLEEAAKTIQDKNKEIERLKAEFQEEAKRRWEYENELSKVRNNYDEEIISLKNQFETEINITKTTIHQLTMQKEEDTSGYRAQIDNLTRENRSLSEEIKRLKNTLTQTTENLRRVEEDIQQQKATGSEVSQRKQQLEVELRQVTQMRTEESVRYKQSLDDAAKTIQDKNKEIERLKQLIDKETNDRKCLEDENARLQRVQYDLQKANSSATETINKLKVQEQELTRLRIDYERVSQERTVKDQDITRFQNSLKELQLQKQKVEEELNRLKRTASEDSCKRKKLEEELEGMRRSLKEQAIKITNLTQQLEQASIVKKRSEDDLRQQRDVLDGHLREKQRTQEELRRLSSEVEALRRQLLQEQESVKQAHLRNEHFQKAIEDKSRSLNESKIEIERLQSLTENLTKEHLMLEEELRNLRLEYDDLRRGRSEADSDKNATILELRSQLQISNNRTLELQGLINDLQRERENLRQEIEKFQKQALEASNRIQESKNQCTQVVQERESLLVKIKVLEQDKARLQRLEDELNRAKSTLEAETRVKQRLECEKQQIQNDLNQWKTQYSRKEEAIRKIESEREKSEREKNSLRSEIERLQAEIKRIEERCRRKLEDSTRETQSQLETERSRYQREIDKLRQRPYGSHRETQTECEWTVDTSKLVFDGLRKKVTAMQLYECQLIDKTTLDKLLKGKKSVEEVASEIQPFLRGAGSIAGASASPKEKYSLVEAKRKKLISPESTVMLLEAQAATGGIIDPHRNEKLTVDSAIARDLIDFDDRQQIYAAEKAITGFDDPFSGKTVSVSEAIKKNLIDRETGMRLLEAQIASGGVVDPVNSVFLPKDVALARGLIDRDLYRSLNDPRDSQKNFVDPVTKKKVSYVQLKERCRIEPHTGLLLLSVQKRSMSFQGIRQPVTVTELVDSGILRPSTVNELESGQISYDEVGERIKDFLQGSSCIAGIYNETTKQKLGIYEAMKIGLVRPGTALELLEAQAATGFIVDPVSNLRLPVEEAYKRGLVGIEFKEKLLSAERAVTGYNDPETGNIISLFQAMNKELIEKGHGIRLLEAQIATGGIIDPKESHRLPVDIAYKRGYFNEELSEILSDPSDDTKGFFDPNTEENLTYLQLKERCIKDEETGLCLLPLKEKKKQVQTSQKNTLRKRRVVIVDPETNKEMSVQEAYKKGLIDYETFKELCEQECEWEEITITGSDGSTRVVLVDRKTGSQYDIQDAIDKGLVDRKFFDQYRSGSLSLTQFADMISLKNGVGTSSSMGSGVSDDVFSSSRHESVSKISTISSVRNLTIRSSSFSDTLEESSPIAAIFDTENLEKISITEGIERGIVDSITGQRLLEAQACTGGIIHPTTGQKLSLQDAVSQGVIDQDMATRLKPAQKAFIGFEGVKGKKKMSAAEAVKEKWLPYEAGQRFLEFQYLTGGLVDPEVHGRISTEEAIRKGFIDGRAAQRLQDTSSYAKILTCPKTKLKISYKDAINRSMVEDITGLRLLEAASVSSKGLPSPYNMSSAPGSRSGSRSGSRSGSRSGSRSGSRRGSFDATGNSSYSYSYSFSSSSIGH
Sequence of Envoplakin, Q92817 (Q92817 whole entry): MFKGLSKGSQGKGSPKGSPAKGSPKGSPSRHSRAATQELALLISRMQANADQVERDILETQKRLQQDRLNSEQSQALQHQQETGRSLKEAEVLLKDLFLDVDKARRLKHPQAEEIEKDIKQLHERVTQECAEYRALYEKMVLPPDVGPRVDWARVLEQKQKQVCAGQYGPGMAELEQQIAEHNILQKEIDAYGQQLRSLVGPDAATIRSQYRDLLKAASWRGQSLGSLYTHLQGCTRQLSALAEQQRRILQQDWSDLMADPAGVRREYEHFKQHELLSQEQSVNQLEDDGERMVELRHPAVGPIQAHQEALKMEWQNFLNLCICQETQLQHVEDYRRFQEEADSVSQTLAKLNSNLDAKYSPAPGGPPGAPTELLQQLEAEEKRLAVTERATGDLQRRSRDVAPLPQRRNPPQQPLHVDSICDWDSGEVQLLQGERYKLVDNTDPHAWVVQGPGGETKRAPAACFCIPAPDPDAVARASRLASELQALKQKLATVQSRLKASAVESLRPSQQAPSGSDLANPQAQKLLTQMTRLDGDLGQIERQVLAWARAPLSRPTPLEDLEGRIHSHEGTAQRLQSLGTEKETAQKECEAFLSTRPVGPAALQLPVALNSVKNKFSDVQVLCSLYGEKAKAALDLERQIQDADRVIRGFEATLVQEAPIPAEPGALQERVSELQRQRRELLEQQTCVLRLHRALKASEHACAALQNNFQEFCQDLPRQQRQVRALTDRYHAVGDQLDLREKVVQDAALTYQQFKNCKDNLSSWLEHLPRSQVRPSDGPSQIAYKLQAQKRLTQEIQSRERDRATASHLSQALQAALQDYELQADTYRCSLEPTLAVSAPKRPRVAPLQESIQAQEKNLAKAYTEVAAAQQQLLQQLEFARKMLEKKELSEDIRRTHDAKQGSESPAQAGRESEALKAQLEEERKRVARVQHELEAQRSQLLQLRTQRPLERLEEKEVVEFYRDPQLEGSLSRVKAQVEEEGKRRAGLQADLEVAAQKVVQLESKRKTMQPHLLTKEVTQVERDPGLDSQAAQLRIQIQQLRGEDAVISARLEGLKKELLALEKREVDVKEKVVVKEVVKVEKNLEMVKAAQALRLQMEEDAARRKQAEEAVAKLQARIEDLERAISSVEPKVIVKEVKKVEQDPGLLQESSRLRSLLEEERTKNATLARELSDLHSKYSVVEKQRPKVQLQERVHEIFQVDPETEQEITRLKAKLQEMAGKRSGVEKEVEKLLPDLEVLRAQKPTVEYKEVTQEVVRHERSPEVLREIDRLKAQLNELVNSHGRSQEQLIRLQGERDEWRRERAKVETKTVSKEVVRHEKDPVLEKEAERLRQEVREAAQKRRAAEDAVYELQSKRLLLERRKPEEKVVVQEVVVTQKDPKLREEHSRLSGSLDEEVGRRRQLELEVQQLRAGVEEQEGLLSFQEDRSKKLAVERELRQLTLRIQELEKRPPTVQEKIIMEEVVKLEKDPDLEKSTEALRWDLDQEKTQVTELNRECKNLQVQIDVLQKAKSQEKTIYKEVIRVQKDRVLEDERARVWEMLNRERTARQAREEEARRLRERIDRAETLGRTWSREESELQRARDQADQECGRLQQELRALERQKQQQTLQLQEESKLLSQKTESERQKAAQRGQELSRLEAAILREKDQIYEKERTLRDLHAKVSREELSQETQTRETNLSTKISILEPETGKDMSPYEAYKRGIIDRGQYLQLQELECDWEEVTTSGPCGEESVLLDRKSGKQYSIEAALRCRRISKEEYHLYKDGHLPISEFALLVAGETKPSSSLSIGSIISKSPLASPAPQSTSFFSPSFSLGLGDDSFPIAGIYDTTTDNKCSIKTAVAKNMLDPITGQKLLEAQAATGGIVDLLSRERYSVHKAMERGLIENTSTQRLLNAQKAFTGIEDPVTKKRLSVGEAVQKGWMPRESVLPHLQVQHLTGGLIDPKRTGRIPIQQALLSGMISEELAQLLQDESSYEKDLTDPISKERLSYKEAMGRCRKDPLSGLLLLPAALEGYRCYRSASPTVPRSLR

B1: recombinant Stratum Corneum Chymotryptic Enzyme (SCCE), active form obtained from recombinant ProSCCE with agarose-bound trypsin (protein)
chain: EEAQGDKIIDGAPCARGSHPWQVALLSGNQLHCGGVLVNERWVLTAAHCKMNEYTVHLGSDTLGDRRAQRIKASKSFRHPGYSTQTHVNDLMLVKLNSQARLSSMVKKVRLPSRCEPPGTTCTVSGWGTTTSPDVTFPSDLMCVDVKLISPQDCTKVYKDLLENSMLCAGIPDSKKNACNGDSGGPLVCRGTLQGLVSWGTFPCGQPNDPGVYTQVCKFTKWINDTMKKHR
proteolysis (immunoblot of human epidermis extract incubated with active SCCE) (Corneodesmosin, Q15517): Corneodesmosin is found to be proteolysed by recombinant SCCE.
proteolysis (immunoblot of human epidermis extract incubated with active SCCE) (Desmocollin 1, Q08554): Desmocollin is found to be proteolysed by SCCE.
proteolysis (immunoblot of human epidermis extract incubated with active SCCE) (Desmoglein, Q02413): Desmoglein is found to be proteolysed by SCCE.
proteolysis (immunoblot of human epidermis extract incubated with active SCCE) (Desmoplakin, P15924): Desmoplakin is found to be proteolysed by SCCE.
proteolysis (immunoblot of human epidermis extract incubated with active SCCE) (Envoplakin, Q92817): Envoplakin is found to be proteolysed by SCCE.
proteolysis (immunoblot of human epidermis extract incubated with active SCCE) (Plakoglobin, P14923): Plakoglobin is found to be proteolysed by recombinant SCCE.
